Experimental data taken from patent US20190276540A1.

Assays:
[1] = molecular target: NKG2D ligands (NKG2DL) on tumor cell lines; assay: cell-based or functional assay
ULBP2-Fc = ULBP2-Fc (UniProt Q9BZM5); assay: cell-based or functional assay
UniProt Q9BZM5, sequence (Q9BZM5 26-217 limits assumed): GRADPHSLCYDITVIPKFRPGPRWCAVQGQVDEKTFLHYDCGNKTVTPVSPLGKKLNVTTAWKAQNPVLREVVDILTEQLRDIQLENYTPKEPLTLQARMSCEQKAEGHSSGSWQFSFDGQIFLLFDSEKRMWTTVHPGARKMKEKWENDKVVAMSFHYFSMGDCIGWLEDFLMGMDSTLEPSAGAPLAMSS

Substance	tumor cell lysis, luciferase reporter assay, 24 h co-culture, E:T 5-to-1 [1] [%]	proliferation of CFSE-labelled TFP T cells on plate-bound antigen, three-day culture, flow cytometry (ULBP2-Fc) [ng/mL]	tumor cell lysis, luciferase reporter assay, 24 h co-culture, E:T 1-to-1 [1] [%]
monomeric NKG2D-CD3ε TFP (receptor)	30 to 50	250	–
dimeric NKG2D-CD3ε TFP (receptor)	–	60	30 to 50
